Laboratory results reported in the domain aggregation screens of Martell et al. (2025).

test: soluble fraction after stress (log2 fold change); higher = more stays soluble; pooled small domains, quantitative proteomics; conditions: stress: pH 4
Outline: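 Values are on a log2 scale, where higher means more of the domain stayed soluble after pH 4 stress. They are fold changes in the soluble amount of each domain from pooled custom libraries, measured by high-throughput quantitative proteomics. The fold change is taken to reflect aggregation propensity.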

Sequence	soluble fraction (log2)
HMDRSAQVLFLEHARSRLPQRIQWAEELAELLSIGIDSAYRRIRGETALTFNEAVSVSRKYDISLDYLFK	-1.4
HMALLSNEDIMFNLEFNRDLAVASNDGVSRDEFLRNKYGISEEEYNMLRARYGDGLNAARIKEYVGQRD	-0.36
HMNENFPYRLKEMVVVQSRTWPGINKPGGVGQVMKINPEAGTVNVKYVLGGSEKNIELKYVTSNDLNSK	0.063
HMIAASQVLRDARQRSRLTQAELGRRADVPQSVISAYESARREPSVDMLARLVAAAGFDLRIGLTP	-0.377
HMGGEHPIPEDWAVNEANYEHGAKFYGYTRAHVDAEAQAFRDQYAANGKKYVDWDAHFRTFMRWQNERRYG	-0.416
HMKIHNSIREITDFDRKQNSNIPSDAKYRIVFYTPQGNKTIIPEELQGLQYYRSKELAEIALNKKLNSN	0.0952
HMKNKRERLGIISEILRMQVIGSQEELLDILRAKGYDVTQATLSRDLKVLKVAKTPLSNGAYKYVLPPQ	≥ 0.43
HMSISEADAKKIALEKVPGATDSNLRIKTDYDDGIMKYEVKIVYNEMKYEFDIDAATGTILEWESESVY	0.277
HMPPQPATQNTKAQVMQLAREKELMAGEGRGANVEALEKFANEHGISLRGMTEEQAEQLVKLLMEYTP	0.19
HMNVSVSITKELQVYINDERISSSALESTLKSKLAGIENPTIILRAEEGVPIEKAVNVMDIANRNRYKIVL	-0.969
HMTKTKADKIDYAIGDSGTEPPTEDKWTDLAHLPLIKAGQFQWTRRTEYYSDGSTAVSYNIAKSE	0.156
HMEGIAEILPASVRQKYGLIGLYDALRGLHFPGNMEEIKAARQRLAFEDTLMFSLTLSMMQYS	-0.0837
HMTVDIADALRVLGLSDAPDWSDVRAAHRRAIVRTHPDAGGSAGDAARVNQAFDLLRKISGNGERPIPG	0.0966
HMDALKAVYQWVTRTMMKNQTGVMQTLPNRDLIELNTQITAQRLMQAGVDPTTLKNANQVENAVNIIESR	-0.193
HMIGPYAAAKLMTNKDFVKWLSGGVEKSVFNPNSFGQHIRRLVQISEVNPDIRDEINAVVQGLTQ	-0.00821
HMAPMYGEFENVRLTDAQLDKLNARFPPEQVQREIEALSGYMRSKGKRYADHYATLLNWLRRDFPP	-0.112
HMQDRDKNVPAGKELLDNEIARLNMSLKQVEQFALPRYNLKTLEDLYSGIGSGDIRLNHLINFLQSKLI	-0.892
HMYVSGVPAITSIERVSTPGRRVYAGYTTVPKVIGGMGVSILTTSRGVMTDAEARRQKVGGELLAKV	-0.29
HMSQYVPDPVLNAALVGYLDFRKQAGKPMTDYSIRLLLVDLAKLSGNPQEQAAILDQSTKNNWIGVYALG	-0.326
HMVNGEFIDRIKVILQENNATRKKDRLTKTRMYQLLQEEGYEGSYSAFTYQVRIIEEELGINNK	≥ 0.43
HMIKISDYLSEEDLNFIKEMEKIYPYFDFDSEGNLILTKSIDELKDKYGFDEAFVSRLDTVLNSR	-0.243
HMEPERRHLEVPAEAEGERIDRFLASQLENLSRSRIQALIKAGYVRNRRGTIEDPGLRVKPGDAFVVDLPP	0.255
HMGLPPIATGVNDNMSFSQAFAAARAEVGAGGAFEWHGRVYGTYYKNEWDGMSAQERHDFEIAAIRGS	-0.0114
HMRKVVLEEKEANYYAEPNSESELLGVLKRGIHLTVTDVKKEAGSDGWVKLVHPDGQEGWISGRARIRV	-0.209
HMVIGKHSGSHTLVNDLAKRGITLDKEESATLLEMVRKAAVGLHRSISSDELYGLYKDMKSGQDPFEDS	0.14

Sequence	soluble fraction (log2)
HMPPSRFNELSMWFQEQLTEAGLKVDSGALKMLIEWLGQDQARLPSIIEVLVSTYGTKKKLTVDEIEPFL	-1.02
HMRWSDQKEIVTLSLDHVLVEKGRKTKEYSWREFRTFTAFEIKKSSKDQINLGFKSKGNTVIIGNF	-0.438
HMKEQLITVYVSGAVARPGLYELPAGIRAQEAVEAAGGFTEAANHEKVNLAKKLKDGSQVNVPALK	-0.107
HMSNSGFVKNNGKTEFYDASGRQAKSSWINISGKWYYFDLNGTMVTGWQRISNKWYYFLEDGSK	0.342
HMSMLSQERQSLILDIIKEQGSVTVTRLTEILQSSESTVRRDLSYLASKGKINKVHGGATALG	-0.306
HMDIHSEEYILGQNIRKYRLRLGWSQADLSNAVDIDRADISKYENGAKGIMSSTLLRKFAKALGVSMDALM	0.0187
HMSTKRQKELLEYVDRFITEHGYGPSYREIMNAIGYKSVSTVAIHIDGLIAKGYLRKRDNSARSLEVV	0.249
HMEVAASEQRDNLWALARRVLSGEQYDVLYLRYVEDFSVAQIADVVGKTQTHVKVLLFRGRNNLGSRLRS	-0.0684
HMNLKDINLNVRHYKIIDFVREHGYASIETLTRQFGVSAQTVRRDIIYLDNQAVLKRHHGGVGTLPG	-0.723
HMVARPVLQIGSTGADVTAIQARLGVSQTGYFGVLTAAAVTNFQRSNGIAASGKVGATTWAKLMQSA	0.316
HMDDTPLNNVIKKIAALPENITLADKSAVLSAWEAYQALSVNLKAQVSNSELLIKAYETILQLEGEDQIK	-0.397
HMSGHIPGIKIKGVIFFDKGSSSNHIIATTENNSNLKLRVGETVQGAVLKSIHPNHVIFFHHNQLIEVGIG	0.0374
HMRRSLIGPTVRERRRALGITQSRLAAEVGISASYLNLIEGDKRNIGGALLQRIAGALGLALD	0.0185
HMADEIMYPVQVNGKVRAEIFVAADQSKNKELVLEMAKSEERVQKYLEEGNLIKEIFVPGRIVNLVI	-0.269
HMNSTRAPYLLDFEEDAAIREARRAGLVPRIARQPSGEPVGRVILQSHDYDYPMKRGDTILITISSG	-0.797
HMKTAWDELNEVIEAYRGQESALIEVLHKAQEIMGYLPRDVQEAIAEGLHVPLNKVYGVVSFYHHFSV	-0.204
HMKDYKSSLQERVQAVGGGQLIYRVNREEGPDHSKTFYMDLFLGDRLIGTGSGRNKKQAEQQAAKEAIERG	0.0469
HMTQEAMRSLRKSLQNLSSRQQVIFMLRHYEGLALKEIAEHLGLETGTVKAHLHRAVTQLRKDLVE	-0.112
HMTDQYEVQNLVGLTVREAQEKEGVKDIFEVREVGSEFSAEYDAGLIVRQSPDAGEQRKGEGLVIEVWVSA	-0.409
HMTHEIKIKSHSLFASEGTKYQWYLNNIKINDATSQELEITSPGIYKLEMTNFDGDVIEKQIIVGLTNS	-1.52
HMAATISPEIQAEAEKAAALGVESIKNFMASLKEKNPEQHALFSDSEKRRLYAIARKADLNTTQQG	0.0597
HMAKDDFMSFVKAVWPEFIEGAHHRVIAQKFNDLATGKITRLIVNMPPRHTKSEFASYLLPAW	-0.144
HMSSSYTEMQLDKLKKLLEKETLLSSEKSELKSLIHDFDKIPEVVSPLIVGEYLRLKNKYIAVINSLE	-0.322
HMVELPDLIGKSKRLAFTQLEISGLKIGKIIYEPDLAKDAVLKILYNGKIVKAGEQLPRFATVDLVLG	-0.0904
HMELGWYVRLRRRELGLSVTALAEKAGMSQSYLSQIETGDRGNPSPESLRSLAEALEVSPRELESLV	0.286

Sequence	soluble fraction (log2)
HMGIDVSAFSDTALEVLRLQAAGYTTREIAQQLHITQRTVKYHASENYRKLDARNLVDAVQIAQSLHI	-0.602
HMGVHSVVPDIKNKHYGEAKAILAANGLSIEISDSIYDRSVAPGTVVESWPKAGAIVKGDRAVFVTLTAF	-1.17
HMLPGERFKVKIAQAGKEKKQGIGYLNDGTMVVIENGIEKVGEEVEAVVIKVIQSSAGKIIFSEVAK	0.0394
HMPAAFALLTDREREIAALIAQRLTNREIAEKLYLSEGSVKQYVNQLYAKLGIEGDTRTKRRRLAEQAK	0.12
HMQSAEMTLDREGQPVQVRVELTGNEARITFLSDQEQTREALDAGMAQLRELLEQQGMVLAGVTV	-0.491
HMNGEAQTMYVTARTLNVRKGPGTSYAKAGTLSRGTAVQVVGFSGNWAKLSNGYYVSTSYLAKI	0.0208
HMDAEELNSKAKDEFTWLEDDESETNLEYRKMVSSEDMAIVAKVAPALAAKLKYQLAHAATNMV	-0.529
HMDVNSRIRQFLKKMKITVQTFESSIGKTNGYIAHTKSPTAGVLAEIAKVYPDLNLDWLITGEGEMLKN	-0.0635
HMTDSLELADLLRRAIITGEYKPRERLVEMELAQKYSVSRTPVREALKHLEALGLVKMERYKGAMVAD	-0.573
HMDSSITLMRMYIPKGHNWENKLISDVSMPTNSLALMIKRNGTTIIPKGDTMILAKDTLILSVPSYEPS	-1.86
HMQVVVEKSKEKVIISGNQYYIHIVKKGETAFSIAKAYGITVDELVKNNPSAATVLKEGQALRIPVVE	0.22
HMENQMIIYIDENDENKRLDSYLSEITPDYSRSKIQNFIKNGNVTVNDSNKKPSYLLKENDKISFELPQQ	-0.158
HMAENTIPSVIGKTLSDATFLLESYGYERGGVSEEYSEMPKGVVIRQSPQAGSSADPGTKVNLVVSLGEEI	-0.692
HMLKLTDRQKVILSILMSDGEKTASWIASQLGVGLRSVQLDLSYLRNNGFIKKASKSTHSAWIVLKK	0.205
HMAPPDFTTFMRNYQDMVYSTAVRLIGNETQAEDIAQEVFIKAHAHFENLRTSPSAGGWLKTVATNLSIN	-0.949
HMEAFAEAVASMLRKLQPEFAIDLVGPRELLVNGRRLDLENLYRMVNHEPVRGQEIVEHYLDQLFAG	-0.665
HMSKQKRIKYFLSILNIKSIKQFRKKDLDYFYQKRFIEIQKSSKDKKLVSNQLIELNAAKEYLDEIDFEN	0.295
HMEKPYTPPANLNEIQSYEELSKAVQYYNKVKDAATTDADRLKAQQSIDTLEDMRKAWDAASST	-0.312
HMPMHPEDLKKLVSIEMPFGKHKGRIIADLPGNYLNWFAREGFPPGEIGRLLQLMQEIDHNGLSDLLKPLR	-0.645
HMIQMRVKVPKNIAGGSLMGAHHFVKSALARTNPGGSTSNYKIQATDGTPLTLGDLTARQYDEVLIISG	-0.617
HMGTIRAPMPGTILKINVVDGDSVTKGDVLLILESMKMENSITSPKTGSVTSVYVSEGDPVQHGETLIDL	-1.22
HMYPQLIGFKVIDEDKGEVGVVKEVSESMHQILLTVMKGKKEILIPLAEEFITKVNRHKKELFMVLPDG	-0.383
HMQQTAEDWKNKGDSLTAQSEYVEAIAAYDEAIRLDPNYAPAWSNKGNALKNLGEYYKAIQAYDEAIRL	-1
HMKSIPKIKWNSTLENIKNFEYQDNFFESKEMYDLLVSFYKYGFVIIKNIPTNNNFIVKFANSIGS	0.121
HMRISLKAQVYEYLKQAIINGDLKVGEIYSEQYFADKLSISRTPVREAILQLQHENMVEVKANRGIIVK	-0.406
